pKd: −log10 of the molar value.
Tests used:
Test in all cases: SPR
[1] = molecular target: BES1 transferrin receptor (glycosylated heterodimer of BES1 ESAG6 and BES1 ESAG7) (Trypanosoma brucei) (UniProt Q8WPU1)
[2] = molecular target: BES1e6BES17e7 chimera (BES1 ESAG6 with BES17 ESAG7) (Trypanosoma brucei) (UniProt Q8WPU1)
[3] = molecular target: BES17e6BES1e7 chimera (BES17 ESAG6 with BES1 ESAG7) (Trypanosoma brucei) (UniProt Q8WPU1)
[4] = molecular target: BES17 transferrin receptor (glycosylated heterodimer of BES17 ESAG6 and BES17 ESAG7) (Trypanosoma brucei) (UniProt Q8WPU1)

Row | Substance | pKd [1] | pKd [2] | pKd [3] | pKd [4]
1 | cow transferrin (from UniProt Q29443 20-704) (ligand) | 7.10 | – | – | –
2 | human holo-transferrin (from UniProt P02787 20-698) (ligand) | – | 6.61 | 6.45 | 7.88

Reference: article PMC6881179
